This experiment concerns the target 6XHIS-tagged Dbp2 (S. cerevisiae, UniProt P24783 1-546). Kind of experiment: pull-down.

6XHIS-tagged Dbp2, sequence (P24783 whole entry): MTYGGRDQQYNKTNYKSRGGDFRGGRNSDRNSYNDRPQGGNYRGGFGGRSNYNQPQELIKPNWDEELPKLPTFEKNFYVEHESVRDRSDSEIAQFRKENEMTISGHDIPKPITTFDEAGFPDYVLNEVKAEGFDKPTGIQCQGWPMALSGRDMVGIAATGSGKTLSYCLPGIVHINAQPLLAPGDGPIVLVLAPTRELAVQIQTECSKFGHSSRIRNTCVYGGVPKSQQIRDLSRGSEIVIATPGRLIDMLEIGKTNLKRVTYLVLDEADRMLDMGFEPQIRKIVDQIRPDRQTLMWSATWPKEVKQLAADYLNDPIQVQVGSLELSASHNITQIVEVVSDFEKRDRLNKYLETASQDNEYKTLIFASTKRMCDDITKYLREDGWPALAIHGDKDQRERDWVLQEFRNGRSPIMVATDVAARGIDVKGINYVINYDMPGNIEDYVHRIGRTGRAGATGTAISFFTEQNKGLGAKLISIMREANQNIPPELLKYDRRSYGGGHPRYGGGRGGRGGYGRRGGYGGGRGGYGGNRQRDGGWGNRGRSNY

B1: GST-Yra1 C (domain or fragment, S. cerevisiae, UniProt Q12159 124-226, looked up)
chain: ITFKNGELARRAVERFNGSPIDGGRSRLRLNLIVDPNQRPVKSLADRIKAMPQKGGNAPRPVKRGPNRKAAMAKSQNKPKREKPAKKSLEDLDKEMADYFEKK
Consider B1, for which the binding result was “binds”.

B2: GST-tagged Yra1 (full length) (natural protein, S. cerevisiae, UniProt Q12159 1-226, looked up)
chain: MSANLDKSLDEIIGSNKAGSNRARVGGTRGNGPRRVGKQVGSQRRSLPNRRGPIRKNTRAPPNAVARVAKLLDTTREVKVNVEGLPRDIKQDAVREFFASQVGGVQRVLLSYNERGQSTGMANITFKNGELARRAVERFNGSPIDGGRSRLRLNLIVDPNQRPVKSLADRIKAMPQKGGNAPRPVKRGPNRKAAMAKSQNKPKREKPAKKSLEDLDKEMADYFEKK
On to B2, for which the binding result is listed as “binds”.
